Experiment [1] deals with Kv2.1 subunit (unlabeled) (human) (UniProt Q14721).
In experiment [2] the target is CFP-tagged N-terminal Kv6.4 fragment (human). Briefly: FRET or BRET; acceptor (YFP) photobleaching FRET in HEK293 cells co-transfected with CFP- and YFP-tagged fragments in a 1:2 cDNA ratio, 48 h after transfection; only cells with YFP/CFP intensity ratio >1. (BRET reads energy transfer from a luciferase to a nearby fluorophore.)
The target of experiment [3] is CFP-tagged Kv6.4 C-terminus (human). Described as above.
The target in experiment [4] is CFP-tagged C-terminal segment of Kv2.1 (human). The description is as above.
Experiment [5] has as its target CFP-tagged N-terminal Kv2.1 fragment (human). The experiment is described as above.
Experiment [6] has as its target CFP-tagged N-terminal Kv3.1 fragment (human). The description is as above.

Results on three substances are retold here after paper PMC4047056.

YFP-tagged N-terminal Kv3.1 fragment (domain or fragment), sequence (P48547 whole entry, the tested form may be a part): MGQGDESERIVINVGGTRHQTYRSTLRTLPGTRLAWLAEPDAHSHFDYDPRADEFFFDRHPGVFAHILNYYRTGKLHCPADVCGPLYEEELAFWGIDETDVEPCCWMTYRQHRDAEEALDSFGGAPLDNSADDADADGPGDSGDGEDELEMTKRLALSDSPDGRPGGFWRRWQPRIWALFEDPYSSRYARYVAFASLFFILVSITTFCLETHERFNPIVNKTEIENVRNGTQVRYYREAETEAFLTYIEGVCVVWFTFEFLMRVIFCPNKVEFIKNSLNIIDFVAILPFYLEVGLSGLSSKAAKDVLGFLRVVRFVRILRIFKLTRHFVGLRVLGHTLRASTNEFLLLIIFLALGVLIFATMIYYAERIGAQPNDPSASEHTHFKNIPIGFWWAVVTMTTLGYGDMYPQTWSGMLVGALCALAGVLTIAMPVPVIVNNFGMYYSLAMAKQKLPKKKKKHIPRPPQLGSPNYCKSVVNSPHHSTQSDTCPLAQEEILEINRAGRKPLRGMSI
CFP-tagged N-terminal Kv6.4 fragment (human), sequence (Q8TDN1 whole entry, the tested form may be a part): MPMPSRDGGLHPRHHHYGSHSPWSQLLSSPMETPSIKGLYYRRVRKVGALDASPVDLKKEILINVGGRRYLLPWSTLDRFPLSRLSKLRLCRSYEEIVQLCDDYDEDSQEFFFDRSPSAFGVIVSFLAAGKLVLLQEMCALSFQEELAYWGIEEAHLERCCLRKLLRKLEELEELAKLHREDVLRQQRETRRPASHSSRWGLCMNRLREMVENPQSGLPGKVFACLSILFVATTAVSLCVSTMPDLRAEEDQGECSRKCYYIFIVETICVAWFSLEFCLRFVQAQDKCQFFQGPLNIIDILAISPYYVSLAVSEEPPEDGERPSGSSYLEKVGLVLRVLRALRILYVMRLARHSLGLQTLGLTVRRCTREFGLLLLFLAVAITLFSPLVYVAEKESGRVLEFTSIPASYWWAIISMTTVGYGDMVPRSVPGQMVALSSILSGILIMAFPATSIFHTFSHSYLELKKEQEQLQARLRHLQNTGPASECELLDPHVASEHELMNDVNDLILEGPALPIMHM
CFP-tagged N-terminal Kv3.1 fragment (human), sequence (P48547 whole entry, the tested form may be a part): as the sequence (P48547 whole entry, the tested form may be a part) above
CFP-tagged Kv6.4 C-terminus (human), sequence (Q8TDN1 whole entry): as the sequence (Q8TDN1 whole entry, the tested form may be a part) above

In experiment [1], “Kv6.4(CKv3.1) chimera in which the C-terminus of Kv6.4 was replaced by the corresponding domain of Kv3.1” had a midpoint of inactivation, V1/2, 1st component of the double Boltzmann fit (as of Kv2.1 homotetramers), whole-cell currents in HEK293 cells co-expressing Kv2.1 and Kv6.4(CKv3.1) of -24.3 mV; a midpoint of inactivation, V1/2, 2nd component of the double Boltzmann fit, whole-cell currents in HEK293 cells co-expressing Kv2.1 and Kv6.4(CKv3.1) of -71.1 mV.

As for “YFP-tagged N-terminal Kv2.1 fragment (domain or fragment)”, the FRET efficiency was 21.3% in experiment [2], 8.7% in experiment [3], 8.3% in experiment [4] and 21.7% in experiment [5].

On to “YFP-tagged N-terminal Kv3.1 fragment (domain or fragment)”, for which the FRET efficiency in experiment [6] worked out at 28.8%; in experiment [2], 9.6%.
